# Laboratory results reported in US12398199 (SYSVAX, dated 2025).
# B1: NBS1-2 (VHH)
# VHH: QVQLVESGGGLVQAGDSLRLACAATGRTLSNYIMGWFRQAPGKEPLFVAAISRSGVITKYADSVEGRFTISRDNAKNTAYLQMTSLEPEDTAVYYCAASSSKYMATREYDYWGQGTQVTVSS
# notes: also called XBS1-2; nano antibody NBS1-2
# B2: NBS1-3 (VHH)
# VHH: QVQLVESGGGLVQPGASLRLSCAASGRTFSSTGMGWFRQAPGKEREFVAAISGDGDTTYYADSVKGRFTISRDNAKNTVYLQMNSLKPWDTAVYYCASTRFTWGLYSDFVNSYEYDAWGQGTPVTVSS
# notes: also called nano antibody NBS1-3
# B3: NBS1-57 (VHH)
# VHH: QVQLVESGGGLVQPGASLRLFCVASGRTFSSTGMGWFRQAPGKEREFVAAISGPGDTTYYVDSVKGRFTISRDNAKNTVYLQMNSLKPEDTAVYYCASAGFTWGLYSDFVNSYEYNYWGQGTPVTVSS
# notes: also called nano antibody NBS1-57
# B4: NBS1-10 (VHH)
# VHH: QVQLVESGGGLVQPGGSLRLSCAASGRTFSSTGMGWFRQGPGKEREFVAAISGDGDTTYYADSVKGRFTISRDNAKNTVYLQMNSLKPEDTAVYYCASARFTWGLYSDFVNSYEYDAWGQGTPVTVSS
# notes: also called nano antibody NBS1-10
# Target: antigen RBD-FC protein (SARS-CoV-2 RBD protein) (SARS-CoV-2, UniProt P0DTC2 319-541)
# Assay: thin film interference (Gator), RBD-Fc captured on anti-human Fc probe, nano antibody in solution
# Experimental: In this example, an instrument Gator® probe life was used to detect an intermolecular interaction with a thin film interference method. A sample to be detected with a concentration not less than 80% and an antigen RBD-FC protein (SARS-CoV-2 RBD protein) with a concentration not less than 90% were prepared.
# 2. Experimental Method: 1) Detection method of NBS1-2 sample: the nano antibody was detected with an immobilized antigen RBD-Fc (100 nM); the probe type used was the anti-human Fc antibody; and the NBS1-2 was diluted to 60,000 nM, 30,000 nM, 15,000 nM, 7,500 nM, 3,750 nM, 1,875 nM, 937.5 nM, and 0 nM with the Q buffer. 2) Detection method of NBS1-3 sample: the nano antibody was detected with the immobilized antigen RBD-Fc (100 nM); the probe type used was the anti-human Fc antibody; and the NBS1-3 was diluted to 25 nM, 12.5 nM, 6.25 nM, 3.18 nM, 1.56 nM, 0.78 nM, and 0 nM with the Q buffer. 3) Detection method of NBS1-10 sample: the nano antibody was detected with the immobilized antigen RBD-Fc (100 nM); the probe type used was the anti-human Fc antibody; and the NBS1-10 was diluted to 25 nM, 12.5 nM, 6.25 nM, 3.18 nM, 1.56 nM, 0.78 nM, and 0 nM with the Q buffer.
# 4) Detection method of NBS1-57 sample: the nano antibody was detected with the immobilized antigen RBD-Fc (100 nM); the probe type used was the anti-human Fc antibody; and the NBS1-57 was diluted to 25 nM, 12.5 nM, 6.25 nM, 3.18 nM, 1.56 nM, 0.78 nM, and 0 nM with the Q buffer.
Binder,Kd,koff,kon
B1,1410 nM,0.00127 s⁻¹,895 M⁻¹ s⁻¹
B2,0.0301 nM,7.16e-05 s⁻¹,2.38e+06 M⁻¹ s⁻¹
B3,1.29 nM,0.00491 s⁻¹,3.8e+06 M⁻¹ s⁻¹
B4,1.31 nM,0.00311 s⁻¹,2.37e+06 M⁻¹ s⁻¹
